According to patent publication EP4682169A1:
Residue numbers refer to the chain shown, from its start.

B1: 10-hIgG1Fc (Fc fusion, not shown: a dimerising Fc or GST)
chain: QVQLAESGGGLVQPGGSLRLSCAASGNILSINYMGWYRQAPGKERELVATITRGGTTNYQGDLKGRFIISGDNTKDTVYLQMNNLQPEDTAVYYCYFRINFGILGGLRDYWGQGTQVTVSS
B2: 2-mIgG2aFc (Fc fusion, not shown: a dimerising Fc or GST)
chain: B1 chain with Q1E, A5V, T56S, D62N
B3: 5-hIgG1Fc (Fc fusion, not shown: a dimerising Fc or GST)
chain: QVQLVESGGGLVQTGGSLRLSCAASDSTFSSYIMGWFRQAPGKEREFVAGITWSGGIKDYADSVKGRFTIARDNAKNTVYLQMNSLKPEDAAIYYCAANAIQLTRRSGDYAYWGQGTQVTVSS
B4: 1-hIgG1Fc (Fc fusion, not shown: a dimerising Fc or GST)
chain: EVQLVGSGGGLVQPGGSLRLSCAASGSILNLMTTGWYRQAPGKQRDLVATITFGGTTNYADSVKGRFTISRDKSKNTAYLQMDNLKPEDTAVYFCYADVIVGFQDRRVAWDAGTQVTVSS
B5: 8-hIgG1Fc (Fc fusion, not shown: a dimerising Fc or GST)
chain: QVQLVESGGGLVQPGGSLRLSCAASGSIFGLNFMGWWRQAPGSQRELVAIATSGGSIQYGDSVKGRFTISRDNAKNTVYLQMASLKPEDTAVYYCNVHTYDFLGRDYWGQGTQVTVSL

Key:
[1] = molecular target: human Claudin18.2 expressed on cells (human) (UniProt P56856); experiment: flow cytometry on 293FT-hClaudin18.2 cells, antibody 10 ug/mL, cells with antibody binding/total cells
[2] = molecular target: human Claudin18.1 expressed on cells (human) (UniProt P56856); experiment: flow cytometry on 293FT-hClaudin18.1 cells, antibody 10 ug/mL, cells with antibody binding/total cells
[3] = molecular target: human Claudin18.1 expressed on cells (human) (UniProt P56856); experiment: flow cytometry on 293FT CLDN18.1-Luc cells, APC anti-mouse IgG Fc

Binder | binding percentage [1] | binding percentage [2] | EC50 [3]
B1 | 96.1% | 2.06% | 
B2 |  |  | 133 nM
B3 | 96% | 2.06% | 
B4 | 88.9% | 2.75% | 
B5 | 93.9% | 2.26% | 
